Laboratory results published in patent US20250346890A1, “LEUKEMIA TREATMENT” (Deutsches Krebsforschungszentrum, priority 2019, published 2025).

How the values were obtained:
BMP4 signaling = assay: BRE reporter assay in HEPG2 cells stimulated by BMP4; type: cell-based, human
Protocol: BRE luciferase assays were executed using 300,000 ml^−1 of HEPG2 cells in 24-well plates. PGL3-BRE-Luciferase (500 ng ml^−1) and pRL-TK-Renilla plasmids (50 ng ml^−1) were transfected using Lipofectamine 3000. After 24 hours, cells were serum starved 2 hours and stimulated 14-16 hours with 80 ng ml^−1 recombinant human BMP4 protein (R&D systems 314-BP) along with AP tagged RSPO1-4 or flag tagged RSPO1-3 conditioned medium. Luciferase activity was measured with the Dual luciferase reporter assay system (Promega E1960). Firefly luminescence (BRE) was normalized to Renilla. TOPFlash luciferase assays were carried out as previously described (Berger et al. (2017), EMBO Rep 18, 712-725, doi: 10.15252/embr.201643585). […] Statistical analyses were made with the PRISM7 software using unpaired t-test or one-way ANOVA test. Not significant (ns) P>0.05, *P<0.05, **P<0.01, ***P<0.001, and ****P<0.0001.

ZNRF3 and ALK3^ECD = target: T1, ZNRF3 and ALK3^ECD (Homo sapiens, UniProt P36894+Q9ULT6); assay: In vitro binding assay for ZNRF3 and ALK3^ECD; settings: plates coated with ZNRF3 Fc, ALK3^ECD-AP preincubated with the protein
T1 construct: purchased R&D systems 7994-RF
T1 sequence (Q9ULT6 56-219 limits assumed): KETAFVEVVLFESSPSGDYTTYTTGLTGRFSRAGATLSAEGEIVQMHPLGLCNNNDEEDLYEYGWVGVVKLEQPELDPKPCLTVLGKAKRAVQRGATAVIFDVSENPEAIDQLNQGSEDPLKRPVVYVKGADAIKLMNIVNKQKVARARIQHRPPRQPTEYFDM
T1 sequence (P36894 24-152 limits assumed): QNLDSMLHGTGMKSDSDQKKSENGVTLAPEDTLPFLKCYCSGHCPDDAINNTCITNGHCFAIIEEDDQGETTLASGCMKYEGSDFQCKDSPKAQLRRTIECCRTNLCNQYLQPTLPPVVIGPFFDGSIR
Protocol: High binding 96-well plates (Greiner M5811) were coated with 2 μg ml^−1 of recombinant human RSPO1 (Peprotech 120-38), RSPO2 (Peprotech 120-43), RSPO3 (Peprotech 120-44) or FGF8b (Peprotech 100-25) recombinant protein reconstituted in bicarbonate coating buffer (50 mM NaHCO3, pH 9.6) overnight at 4° C. Coated wells were washed three times with TBST (TBS, 0.1% Tween-20) and blocked with 5% BSA in TBST for 1 hour at room temperature. 1.5 U ml^−1 of ALK3^ECD-AP or control conditioned medium was incubated overnight at 4° C. Wells were washed six times with TBST and bound AP activity was measured by the chemiluminescent SEAP Reporter Gene Assay kit (Abcam ab 133077). For ZNRF3-ALK3 binding assay, plates were coated with recombinant human ZNRF3 Fc Chimera protein (R&D systems 7994-RF). ALK3^ECD-AP was preincubated with RSPO2-Flag, RSPO2^ΔTSP-Flag conditioned medium or recombinant RSPO protein prior to treatment. Control conditioned medium and vesicles were used as control. […] Statistical analyses show unpaired t-tests.

THP-1 cells = assay: Monocyte-macrophage differentiation of THP-1 cells (FACS / qRT-PCR of CD14, CD11B); type: cell-based, human; settings: THP-1 cells, co-treatment of ATRA with RSPO2
Protocol: Cultured cells were lysed in Macherey-Nagel RAI buffer containing 1% β-mercaptoethanol and total RNAs were isolated using NucleoSpin RNA isolation kit (Macherey-Nagel 740955). Reverse transcription and PCR amplification were performed. Primers used in this study are listed in Supplementary Table 1. Graphs show relative gene expressions to GAPDH. […] Statistical analyses were performed using PRISM7 software with unpaired t-test or one-way ANOVA test.
For analyzing macrophage differentiation of THP-1, cells were harvested, pelleted and resuspended in ice-cold blocking buffer (PBS supplemented with 1% BSA and 0.1% NaN3). Cells were treated with Fc Receptor Binding Inhibitor as recommended by the manufacturer (eBioscience 14916173) and stained directly with FITC/APC-conjugated antibodies diluted in blocking buffer or with non-conjugated primary antibodies followed by fluorochrome-labeled secondary antibodies. Isotype-matched antibodies were used as controls. Dead cells were excluded by counterstaining with propidium iodide. For analyzing apoptosis of THP-1, cells were fixed in 4% PFA, permeabilized by MeOH and blocked with PBS supplemented with 1% BSA and 0.1% Tween-20. Cells were stained with anti-active Caspase-3 antibody and fluorochrome-labeled secondary antibody. FACS Samples were analyzed with FACSCalibur or FACSCanto (BD Biosciences). 10,000 events per samples were acquired, and results were processed with Cell Quest or FACSDiva software (BD Biosciences). For BMP4 stimulation, cells were treated with 5 and 25 ng ml^−1 recombinant human BMP4 protein (R&D systems 314-BP). 100, 300 and 1000 nM LDN […] (Tocris 6053) were used for rescue assay. For the THP-1 cell number quantification and differentiation validation in vivo, bone marrow cells were harvested from tibias of NSG mice and red blood cells were removed by ACK Lysing Buffer (Gibco A1049201). Cells were stained and analyzed as above. Here, 50,000 PI-negative events per samples were acquired.
THP-1 cells were treated with 0.3, 1.0 and 3.0 μg ml^−1 goat polyclonal anti-RSPO2 antibodies (R&D systems AF3266) or goat polyclonal GFP antibodies (ABIN 100085). After 48 hours, medium was replaced including fresh antibodies—and incubated another 24 hours. Western blot analysis and FACS analyses were performed as discussed above.
The sequences of shRSPO2 and shControl (Table 1) were synthesized, inserted into the transfer plasmid Tet-pLKO-puro (Addgene 21915) and validated by sequencing. Lentivirus was produced with the 3rd generation lentiviral system according to the protocol available at the Trono lab as described (www.epfl.ch/labs/tronolab/). THP-1 cells were infected with lentivirus with 8 μg ml^−1 Polybrene (Sigma TR-1003) and selected with 0.5 μg ml^−1 puromycin (Calbiochem 540411). Single cell clones were obtained by limiting dilutions. The shRNA expression of clones was validated by monitoring RSPO2 expression after doxycycline treatment (1.0 μg ml^−1) for 3 days.

B1: RSPO2: human R-spondin 2 protein (SEQ ID NO:1); conditioned medium or recombinant (Peprotech 120-43) (protein, listed as Homo sapiens)
chain: MQFRLFSFALIILNCMDYSHCQGNRWRRSKRASYVSNPICKGCLSCSKDNGCSRCQQKLFFFLRREGMRQYGECLHSCPSGYYGHRAPDMNRCARCRIENCDSCFSKDFCTKCKVGFYLHRGRCFDECPDGFAPLEETMECVEGCEVGHWSEWGTCSRNNRTCGFKWGLETRTRQIVKKPVKDTILCPTIAESRRCKMTMRHCPGGKRTPKAKEKRNKKKKRKLIERAQEQHSVFLATDRANQ
BMP4 signaling (BMP4 signaling; HEPG2 cells, BMP4 stimulation, treatment with RSPO protein): decreased BMP4 signaling
inhibition of BMP signaling by RSPO2 after knockdown of WNT pathway components (BMP4 signaling; siRNA knockdown of β-catenin, LGR4/5, LRP5/6, DVL1/2/3 and ROR1/2): remained unaffected
ZNRF3 interaction with ALK3 in the presence of the protein (ZNRF3 and ALK3^ECD): interacted with ALK3
ATRA-induced Smad1-phosphorylation, ID1 and CD11B expression (THP-1 cells): reverted these effects
